According to article PMC5282582:

Experiments:
Assay in all cases: SEC-MALS; 100 μl of purified protein injected at 12 mg/ml (high concentration); Superdex 200 10/300 GL, room temperature, 10 mM HEPES pH 7.4, 200 mM NaCl, 5 mM β-ME, 0.4 ml/min
[1] = target: αγ heterodimer of human NAD-dependent isocitrate dehydrogenase (human) (UniProt P50213)
[2] = target: mutant α_(Y126F)γ heterodimer of human NAD-dependent isocitrate dehydrogenase (human) (UniProt P50213)
[3] = target: αβ heterodimer of human NAD-dependent isocitrate dehydrogenase (human) (UniProt P50213)
[4] = target: mutant α_(Y126F)β heterodimer of human NAD-dependent isocitrate dehydrogenase (human) (UniProt P50213)

Chain of mutant α_(Y126F)β heterodimer of human NAD-dependent isocitrate dehydrogenase (P50213 whole entry, looked up, stated change not applied, one chain of several): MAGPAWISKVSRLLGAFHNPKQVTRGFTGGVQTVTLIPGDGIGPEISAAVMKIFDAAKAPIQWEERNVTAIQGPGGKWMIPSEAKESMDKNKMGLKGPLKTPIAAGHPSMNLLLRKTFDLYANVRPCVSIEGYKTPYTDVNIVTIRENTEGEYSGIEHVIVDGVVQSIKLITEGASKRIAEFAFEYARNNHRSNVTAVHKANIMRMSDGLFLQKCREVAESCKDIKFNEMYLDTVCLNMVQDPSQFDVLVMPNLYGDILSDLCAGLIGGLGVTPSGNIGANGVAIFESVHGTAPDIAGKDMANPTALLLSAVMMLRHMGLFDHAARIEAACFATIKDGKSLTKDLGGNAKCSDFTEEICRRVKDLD
Chain of αβ heterodimer of human NAD-dependent isocitrate dehydrogenase (P50213 whole entry, looked up, one chain of several): as the sequence (P50213 whole entry, looked up, stated change not applied, one chain of several) above

How did the stoichiometry N [1] turn out when “αγ heterodimer of human NAD-dependent isocitrate dehydrogenase (from UniProt P50213 28-366; P51553 40-393) (complex)” was run?
Its stoichiometry N is 2.

For “mutant α_(Y126F)γ heterodimer of human NAD-dependent isocitrate dehydrogenase (from UniProt P50213 55-366; P51553 40-393) (complex)”, which stoichiometry N [2] is on record?
The stoichiometry N was 2.

With “αβ heterodimer of human NAD-dependent isocitrate dehydrogenase (from UniProt P50213 28-366) (complex)” as the substance, how does the stoichiometry N [3] read?
The stoichiometry N was 2.

How did the stoichiometry N [4] turn out when “mutant α_(Y126F)β heterodimer of human NAD-dependent isocitrate dehydrogenase (from UniProt P50213 55-366) (complex)” was run?
Its stoichiometry N is 2.
